Drawing on paper PMC13545989, this text covers fold enrichment versus TRAK2-driven synthetic cargo and ratio to parent for 3 molecules.

Test [1] addresses TRAK1/mScarlet fusion protein (wild type) (UniProt Q9UPV9). Put plainly: co-IP; FLAG purification of Miro1/FP/FLAG/I3-01 synthetic cargo from hTERT RPE-1 cell lines co-expressing TRAK/mScarlet variants; immunoblot of the associated motor-adaptor components (kinesin, dynein, dynactin); also done after kinesin RNAi (fig. S4E).
In test [2] the target is T1, kinesin-1, P33176.
T1 chain: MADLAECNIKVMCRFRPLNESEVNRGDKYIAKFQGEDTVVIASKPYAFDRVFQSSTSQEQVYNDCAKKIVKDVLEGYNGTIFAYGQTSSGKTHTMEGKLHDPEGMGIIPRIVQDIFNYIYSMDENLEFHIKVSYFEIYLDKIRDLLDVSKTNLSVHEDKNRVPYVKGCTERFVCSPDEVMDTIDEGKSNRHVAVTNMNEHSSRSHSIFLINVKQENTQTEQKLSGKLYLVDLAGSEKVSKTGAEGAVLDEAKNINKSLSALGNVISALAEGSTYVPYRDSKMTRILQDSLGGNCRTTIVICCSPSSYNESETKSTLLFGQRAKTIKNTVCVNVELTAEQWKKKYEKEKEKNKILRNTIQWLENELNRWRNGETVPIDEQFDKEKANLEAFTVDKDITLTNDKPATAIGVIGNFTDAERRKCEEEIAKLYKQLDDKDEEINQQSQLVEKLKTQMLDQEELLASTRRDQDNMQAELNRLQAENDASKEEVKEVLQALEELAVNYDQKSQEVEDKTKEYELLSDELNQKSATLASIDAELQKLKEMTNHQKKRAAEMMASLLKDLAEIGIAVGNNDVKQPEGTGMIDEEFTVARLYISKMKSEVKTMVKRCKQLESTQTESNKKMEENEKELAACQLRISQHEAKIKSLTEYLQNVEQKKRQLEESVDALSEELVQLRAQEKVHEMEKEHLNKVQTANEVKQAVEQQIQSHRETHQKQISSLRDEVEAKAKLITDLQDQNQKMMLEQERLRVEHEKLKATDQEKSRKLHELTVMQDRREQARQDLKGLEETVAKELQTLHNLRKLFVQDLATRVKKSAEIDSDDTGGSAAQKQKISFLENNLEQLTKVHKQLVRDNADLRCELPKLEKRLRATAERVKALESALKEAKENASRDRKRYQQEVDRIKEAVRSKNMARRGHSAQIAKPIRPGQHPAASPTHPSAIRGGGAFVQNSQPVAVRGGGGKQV
Put plainly: FLAG immunoprecipitation of synthetic cargo, immunoblot quantification (anti-KIF5B). To be noted: chain shown with the change; IP: flag; hTERT RPE-1 cells; n=4; parent: est. 1.0; read off a plot.

In test [1], “kinesin-1 (from UniProt P33176 1-963) (natural protein)” displayed a fold enrichment versus TRAK2-driven synthetic cargo of 20 fold.

B1: TRAK2/mScarlet fusion protein (wild type), O60296 F92A; M95A (protein)
chain: MSQSQNAIFTSPTGEENLMNSNHRDSESITDVCSNEDLPEVELVSLLEEQLPQYRLKVDTLFLYENQDWTQSPHQRQHASDALSPVLAEETARYAILGTDRVEQMTKTYNDIDMVTHLLAERDRDLELAARIGQALLKRNHVLSEQNESLEEQLGQAFDQVNQLQHELCKKDELLRIVSIASEESETDSSCSTPLRFNESFSLSQGLLQLEMLQEKLKELEEENMALRSKACHIKTETVTYEEKEQQLVSDCVKELRETNAQMSRMTEELSGKSDELIRYQEELSSLLSQIVDLQHKLKEHVIEKEELKLHLQASKDAQRQLTMELHELQDRNMECLGMLHESQEEIKELRSRSGPTAHLYFSQSYGAFTGESLAAEIEGTMRKKLSLDEESSLFKQKAQQKRVFDTVRIANDTRGRSISFPALLPIPGSNRSSVIMTAKPFESGLQQTEDKSLLNQGSSSEEVAGSSQKMGQPGPSGDSDLATALHRLSLRRQNYLSEKQFFAEEWQRKIQVLADQKEGVSGCVTPTESLASLCTTQSEITDLSSASCLRGFMPEKLQIVKPLEGSQTLYHWQQLAQPNLGTILDPRPGVITKGFTQLPGDAIYHISDLEEDEEEGITFQVQQPLEVEEKLSTSKPVTGIFLPPITSAGGPVTVATANPGKCLSCTNSTFTFTTCRILHPSDITQVTPSSGFPSLSCGSSGSSSSNTAVNSPALSYRLSIGESITNRRDSTTTFSSTMSLAKLLQERGISAKVYHSPISENPLQPLPKSLAIPSTPPNSPSHSPCPSPLPFEPRVHLSENFLASRPAETFLQEMYGLRPSRNPPDVGQLKMNLVDRLKRLGIARVVKNPGAQENGRCQEAEIGPQKPDSAVYLNSGSSLLGGLRRNQSLPVIMGSFAAPVCTSSPKMGVLKED
On to B1, for which, in test [2], the ratio to parent is 0.46.

B2: TRAK1/mScarlet fusion protein (wild type), Q9UPV9 L92A; F95A (protein)
chain: MALVFQFGQPVRAQPLPGLCHGKLIRTNACDVCNSTDLPEVEIISLLEEQLPHYKLRADTIYGYDHDDWLHTPLISPDANIDLTTEQIEETAKYALLCAERVGQMTKTYNDIDAVTRLLEEKERDLELAARIGQSLLKKNKTLTERNELLEEQVEHIREEVSQLRHELSMKDELLQFYTSAAEESEPESVCSTPLKRNESSSSVQNYFHLDSLQKKLKDLEEENVVLRSEASQLKTETITYEEKEQQLVNDCVKELRDANVQIASISEELAKKTEDAARQQEEITHLLSQIVDLQKKAKACAVENEELVQHLGAAKDAQRQLTAELRELEDKYAECMEMLHEAQEELKNLRNKTMPNTTSRRYHSLGLFPMDSLAAEIEGTMRKELQLEEAESPDITHQKRVFETVRNINQVVKQRSLTPSPMNIPGSNQSSAMNSLLSSCVSTPRSSFYGSDIGNVVLDNKTNSIILETEAADLGNDERSKKPGTPGTPGSHDLETALRRLSLRRENYLSERRFFEEEQERKLQELAEKGELRSGSLTPTESIMSLGTHSRFSEFTGFSGMSFSSRSYLPEKLQIVKPLEGSATLHHWQQLAQPHLGGILDPRPGVVTKGFRTLDVDLDEVYCLNDFEEDDTGDHISLPRLATSTPVQHPETSAHHPGKCMSQTNSTFTFTTCRILHPSDELTRVTPSLNSAPTPACGSTSHLKSTPVATPCTPRRLSLAESFTNTRESTTTMSTSLGLVWLLKERGISAAVYDPQSWDRAGRGSLLHSYTPKMAVIPSTPPNSPMQTPTSSPPSFEFKCTSPPYDNFLASKPASSILREVREKNVRSSESQTDVSVSNLNLVDKVRRFGVAKVVNSGRAHVPTLTEEQGPLLCGPPGPAPALVPRGLVPEGLPLRCPTVTSAIGGLQLNSGIRRNRSFPTMVGSSMQMKAPVTLTSGILMGAKLSKQTSLR
B2: in test [2], the ratio to parent is 0.02.
